The text below walks through data of patent US20210107971A1 (UCB, published 2021).

T1: biotinylated peptide corresponding to residues 117 to 126 of human alpha synuclein (peptide PVDPDNEAYE) (human, also: biotinylated, site not given here)
T1 construct: Captured on streptavidin plates for ELISA
T1 peptide: PVDPDNEAYE

B1: 6470gL3gH23 IgG4P (antibody, V domains shown)
VH: EVQLLESGGGLVQPGGSLRLSCAVSGIDLSSHDMYWVRQAPGKGLEYIGAIYASGSTYYASWAKGRFTISRDNSKNTVYLQMNSLRAEDTAVYYCARIHYGNSGGLWGQGTLVTVSS
VL: DIQMTQSPSSLSASVGDRVTITCQASQSVYKNNYLAWFQQKPGKAPKQLIYGASTLASGVPSRFSGSGSGTQFTLTISSLQPEDFATYYCAGYKGGRNDGFAFGGGTKVEIKR
notes: Full-length humanized human IgG4P; also called VR6470 gL3
B2: VR6470 gL3; gH23-S56N-N102H (antibody, human IgG4 S228P, kappa, V domains shown)
VH: B1 VH with S56N, N102H
VL: B1 VL
notes: Full-length humanized human IgG4P
B3: VR6470 gL3-N33R; gH23-S56N-N102H (antibody, human IgG4 S228P, kappa, V domains shown)
VH: B1 VH with S56N, N102H
VL: B1 VL with N33R
notes: as for B2
B4: VR6470 gL3-N33R; gH36-S56N-N102H (antibody, human IgG4 S228P, kappa, V domains shown)
VH: B1 VH with S56N, N73S, V78L, N102H
VL: B1 VL with N33R
notes: as for B2
B5: VR6470 gL3; gH36-S56N-N102H (antibody, human IgG4 S228P, kappa, V domains shown)
VH: B1 VH with S56N, N73S, V78L, N102H
VL: B1 VL
notes: as for B2
B6: 6470gL3gH36 IgG4P (antibody, V domains shown)
VH: B1 VH with N73S, V78L
VL: B1 VL
notes: Full-length humanized human IgG4P; also called VR6470 gL3; VR6470
B7: monoclonal 6470 rabbit IgG1 (antibody, V domains shown)
VH: QSVEESGGRLVTPGTPLTLTCTVSGIDLSSHDMYWVRQAPGKGLEYIGAIYASGSTYYASWAKGRFTISKTSTTVDLKMTSLTTEDTATYFCARIHYGNSGGLWGQGTLVTVSS
VL: AIVMTQTPSSKSVAVGDTVTINCQASQSVYKNNYLAWFQQKPGQPPKQLIYGASTLASGVPSRFKGSGSGTQFTLTISDVVCDDAATYYCAGYKGGRNDGFAFGGGTEVVVKR
notes: Recombinant rabbit IgG1/kappa expressed in Expi293 cells
B8: 6470gL3gH25 (antibody, V domains shown)
VH: B1 VH with Y47W, R71K, N73S
VL: B1 VL
B9: 6470gL6gH36 (antibody, V domains shown)
VH: B1 VH with N73S, V78L
VL: B1 VL with Q48S
B10: 6470gL3gH35 (antibody, V domains shown)
VH: B1 VH with R71K, N73S, R97K
VL: B1 VL
B11: 6470gL8gH23 (antibody, V domains shown)
VH: B1 VH
VL: B1 VL with Q72D
B12: 6470gL8gH36 (antibody, V domains shown)
VH: B1 VH with N73S, V78L
VL: B1 VL with Q72D
B13: 6470gL3gH27 (antibody, V domains shown)
VH: B1 VH with G49S, R71K, N73S
VL: B1 VL
B14: 6470gL3gH26 (antibody, V domains shown)
VH: B1 VH with I48V, R71K, N73S
VL: B1 VL
B15: AS125-134 (peptide)
peptide: Ac-YEMPSEEGYQ-NH2
notes: Synthetic peptide of human alpha synuclein
B16: AS123-132 (peptide)
peptide: Ac-EAYEMPSEEG-NH2
notes: as for B15
B17: AS121-130 (peptide)
peptide: Ac-DNEAYEMPSE-NH2
notes: as for B15
B18: AS127-136 (peptide)
peptide: Ac-MPSEEGYQDY-NH2
notes: as for B15
B19: AS113-122 (peptide)
peptide: Ac-LEDMPVDPDN-NH2
notes: as for B15
B20: AS119-128 (peptide)
peptide: Ac-DPDNEAYEMP-NH2
notes: as for B15
B21: AS104-113 (peptide)
peptide: Ac-EEGAPQEGIL-NH2
notes: as for B15
B22: AS111-120 (peptide)
peptide: Ac-GILEDMPVDP-NH2
notes: as for B15
B23: AS109-118 (peptide)
peptide: Ac-QEGILEDMPV-NH2
notes: as for B15

Positions count from the first letter of the chain named. Numbers in names are those of the source. No end group written: not given here.

The first test deals with T2, purified recombinant human alpha synuclein fibrils (human, UniProt P37840 1-140). As to the kind of experiment: cell-based or functional assay.
As to B1, the “IC50, inhibition of alpha synuclein aggregation induced by fibrils in HEK293F cells expressing alpha synuclein (% pSer129+ cells)” value (“IC50, inhibition … (% pSer129+ cells)” for short) is less than 5 nM.
In the case of B2, the “IC50, inhibition … (% pSer129+ cells)” value is less than 5 nM.
As for B3, the “IC50, inhibition … (% pSer129+ cells)” value is less than 5 nM.
The same measure, in the same setting: the result for B4 reads less than 5 nM; that for B5, less than 5 nM.
For the molecule B6, the “IC50, inhibition … (% pSer129+ cells)” value is less than 5 nM and the “IC50, inhibition of alpha synuclein aggregation induced by fibrils on mouse primary neurons (pSer129 alpha synuclein signal)” value was less than 4 nM.

The next test concerns the target T2, purified recombinant human alpha …. Nature of the test: cell-based or functional assay. This is another data set of the same source.
For B6, the “IC50 (nM), HEK cell-based aggregation assay” value was less than 5 nM.

For a further test, the target named is T3, human beta synuclein (rPeptide) (human, UniProt Q16143 1-134).
T3 construct: also called rPeptide beta synuclein
T3 sequence (Q16143 whole entry): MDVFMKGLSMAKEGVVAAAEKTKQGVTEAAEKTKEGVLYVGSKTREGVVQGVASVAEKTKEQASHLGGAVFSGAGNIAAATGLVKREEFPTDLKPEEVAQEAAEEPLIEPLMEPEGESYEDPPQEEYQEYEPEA
Nature of the test: Western blot, 1 microgram synuclein. A general note: Immunoblotting shows a protein as a band on a membrane.
Protocol: The binding of antibodies raised against human alpha synuclein to human beta synuclein were tested by Western blot using rPeptide beta synuclein. […] The membrane was blocked in PBS with 3% BSA and 0.1% Tween20. […] The blot was washed extensively in PBS with 0.1% Tween20, PBS and water. Chemi-luminescence was measured after addition of ECL Western blot substrate (Pierce).
As to B7, the binding result is given as “no binding”.

The target in the next test is T4, recombinant full-length human alpha synuclein monomer (human, UniProt P37840 1-140). As to the kind of experiment: SPR, Biacore T200, as in Example 3; full-length IgG4P injected. In general terms: Surface plasmon resonance follows binding to a sensor surface in real time, without labels.
Protocol: (§1) Interaction kinetics were determined by using surface plasmon resonance technology on a Biacore T200 instrument. Three different ligands including recombinant full-length human alpha synuclein monomer, purified recombinant human alpha synuclein fibrils, and purified recombinant mouse alpha synuclein fibrils, prepared as described herein, were each immobilized on three different flow cells of a CM5 chip surface using amine-coupling chemistry. The three ligands were prepared in 10 mM NaAc, pH 3.5, and immobilized onto separate flow cell surfaces to reach an immobilization level of about 30 response units (RU) for alpha synuclein monomer, about 40 RU for human alpha synuclein fibrils, and about 300 RU for mouse alpha synuclein fibrils respectively, at a flow rate of 10 μI/min. The buffer HBS-EP+(GE healthcare Bio-Sciences AB) was used as running buffer for both ligand immobilization and kinetics assay. […] The surface was regenerated by one injection of 50 mM HCl for 90 s at 10 μI/min, and another injection of 50 mM HCl for 60 s at 10 μI/min. The data were analyzed using the Biacore T200 evaluation software (version 3.0) using the bivalent analyte model with assumed no bulk contribution (RI=0) and global Rmax for IgG format, and 1:1 model with flexible bulk contribution (local RI) and global Rmax.
Consider B1, for which the koff (in general, the rate constant with which the complex falls apart) was determined as 0.0242 s⁻¹ and the on-rate (kon) (usually the second-order rate constant of association) came out at 1.2e+06 M⁻¹ s⁻¹.
In the case of B2, the Kd (commonly the concentration at which binding is half-saturated) came out at 4.62 nM, the koff is 0.00445 s⁻¹ and the kon came to 966000 M⁻¹ s⁻¹.
For B3, in that order: 1.71 nM, 0.00594 s⁻¹ and 3.48e+06 M⁻¹ s⁻¹.
In the same order, the values of B4 are 1.31 nM, 0.00648 s⁻¹ and 4.97e+06 M⁻¹ s⁻¹.
For B5, in that order: 4.1 nM, 0.00488 s⁻¹ and 1.19e+06 M⁻¹ s⁻¹.
Regarding B6, the equilibrium dissociation constant (Kd) came out at 15.1 nM, the koff came to 0.0174 s⁻¹ and the kon stood at 1.15e+06 M⁻¹ s⁻¹.

Another test concerns the target T2, purified recombinant human alpha …. The description is as above.
Protocol: as §1
As to B1, the koff amounted to 0.000142 s⁻¹ and the kon is 855000 M⁻¹ s⁻¹.
In the case of B2, the Kd was 0.068 nM, the koff was determined as 7.08e-05 s⁻¹ and the on-rate constant (kon) was 1.04e+06 M⁻¹ s⁻¹.
For the molecule B3, the Kd is 0.056 nM, the koff was found to be 0.000116 s⁻¹ and the on-rate (kon) was determined as 2.07e+06 M⁻¹ s⁻¹.
In the same order, the values of B4 are 0.053 nM, 0.000126 s⁻¹ and 2.39e+06 M⁻¹ s⁻¹.
In the same order, the values of B5 are 0.059 nM, 7.44e-05 s⁻¹ and 1.25e+06 M⁻¹ s⁻¹.
As for B6, the Kd turned out to be 0.298 nM, the koff was found to be 0.000317 s⁻¹ and the kon was determined as 1.07e+06 M⁻¹ s⁻¹.

For the next test the target is unchanged. Nature of the test: SPR, Biacore T200, as in Example 3; full-length IgG4P injected; human fibril.
For B1, the Kd was found to be 0.166 nM.

The target of a further test is T4, recombinant full-length human alpha …. As to the kind of experiment: SPR, Biacore T200, as in Example 3; full-length IgG4P injected; human monomer.
Protocol: as §1
In the case of B1, the Kd was 20.1 nM.

In a further test the target is purified recombinant human alpha synuclein fibrils (human, UniProt P37840 1-140). Nature of the test: affinity for human alpha synuclein fibrils, IgG4P; method not given.
As to B8, the Kd was found to be 76 nM.

The target of the next test is T2, purified recombinant human alpha …. The description is as above.
As to B9, the Kd was 0.377 nM.
The same measure, in the same setting: the result for B10 reads 5.28 nM; that for B11, 0.246 nM; that for B12, 0.198 nM.
Still for that read-out and setting: the result for B13 reads 22.3 nM; that for B14, 0.3 nM; that for B6, 0.166 nM.

In another test the target is T4, recombinant full-length human alpha …. Nature of the test: kinetics table of Example 9 (method not named there; same values as Table 7B, SPR).
As for B6, the equilibrium dissociation constant (Kd) was 15.1 nM, the koff amounted to 0.0174 s⁻¹ and the kon was 1.15e+06 M⁻¹ s⁻¹.

In a further test the target is T2, purified recombinant human alpha …. The test is described as above.
As for B6, the Kd turned out to be 0.298 nM, the koff is 0.000317 s⁻¹ and the kon was 1.07e+06 M⁻¹ s⁻¹.

Another test addresses T1, biotinylated peptide corresponding to …. Nature of the test: streptavidin-capture ELISA on biotinylated peptide PVDPDNEAYE, HRP anti-rabbit IgG Fc, TMB, OD 630 nm.
Protocol: Purified antibodies were then subject to further screening by ELISA. […] Plates were blocked with 1% w/v PEG/PBS and then incubated with several dilutions of purified transient supernatant. Secondary HRP-conjugated goat anti-rabbit IgG Fc antibody (Stratech Scientific Ltd/Jackson ImmunoResearch) was added to plates, followed by visualization of binding with TMB substrate (3,3′,5,5′-Tetramethylbenzidine, from EMD Millipore; 10 μl/well).
Take B7: the binding result is given as “no binding”.

In another test the target is T5, monoclonal 6470 rabbit Fab.
T5 construct: Fab heavy chain entry carries a C-terminal His tag
As to the kind of experiment: competitive SPR (Biacore 3000): 1 µM peptide with 50 nM Fab; competitor immobilised human alpha synuclein fibrils.
Protocol: (§2) Recombinant human alpha synuclein monomer and pre-formed alpha synuclein fibrils were immobilized on a CM5 chip using a Biacore 3000 instrument (GE Healthcare). Following activation of the carboxymethyl dextran surface by injection of 100 μl of a fresh 1:1 (v/v) mixture of 50 mM N-hydroxysuccimide and 200 mM 1-ethyl-3-(3-dimethylaminopropyl)-carbodiimide at a flow rate of 10 μl/min HBS-EP (GE Healthcare) as running buffer, coupling was achieved by injecting 100 μl of monomer and fibrils, at 5 μM in 10 mM acetate pH 5.0, over separate flow cells. A reference flow cell was activated in the same manner and then all flow cell surfaces were deactivated with a 50 μl pulse of 1 M ethanolamine HCl pH 8.5.
(§3) Peptide solutions were prepared in running buffer at 100 μM and a peptide blank control prepared as a 1 in 100 dilution of DMSO in running buffer. […] Sensograms were recorded for each sample by injecting 30 μl of the mixture at 10 μl/min and recording a report point 5 seconds before the end of the injection. […] Control cycles were alternated with peptide cycles.
As to B15, the % inhibition (usually the relative decrease from the control value, in per cent) was 52%.
Same read-out and setting: the result for B16 reads 54%.
On the same count and under the same terms, the result for B17 reads 27%.

The target of another test is T5, monoclonal 6470 rabbit Fab. Nature of the test: competitive SPR (Biacore 3000): 1 µM peptide with 50 nM Fab; competitor immobilised human alpha synuclein monomer.
Protocol: as §2, §3
In the case of B15, the “% inhibition” value was determined as 34%.
With B16, the “% inhibition” value stood at 37%.
Same read-out and setting: the result for B17 reads 20%.

In a further test the target is T2, purified recombinant human alpha …. As to the kind of experiment: affinity for human alpha synuclein fibrils, IgG4P; method not given; Table 6 humanization screen, separate from Table 7B.
Consider B1, for which the Kd is 0.148 nM.

Another test addresses T5, monoclonal 6470 rabbit Fab. As to the kind of experiment: competitive SPR: 6470 Fab pre-incubated with peptide, injected over immobilised human alpha synuclein monomer and fibrils; %inhibition.
Protocol: as §2, §3
For the molecule B18, the binding result is listed as “no binding”.
Same read-out and setting: the result for B19 reads “no binding”; that for B20, “no binding”; that for Ac-SEEGYQDYEP-NH2 (peptide, UniProt P37840 129-138, looked up, synthetic 10-mer peptide) [129-138], “no binding”.
Same read-out and setting: the result for Ac-EGYQDYEPEA-OH (peptide, UniProt P37840 131-140, looked up, synthetic 10-mer peptide) [131-140] reads “no binding”; that for Ac-PVDPDNEAYE-NH2 [AS117-126], “no binding”; that for B21, “no binding”.
Still for that read-out and setting: the result for B22 reads “no binding”; that for B23, “no binding”.
